Test results reported in US20200079848A1 (Five Prime, published 2020).

Legend:
[1] = molecular target: T1, human ILT4 (hILT4) expressed on cells (human, UniProt Q8N423 22-597); assay: flow cytometry on hILT4-transfected CHO cells, MFI (PE); EC50 from the table beside the graph; the table has no unit, the concentration axis is in ug/mL
T1 construct: hILT4 on transfected CHO or 293T cells, or native on human monocytes and macrophages; also called LILRB2

hILT4-His-Avi tag [2] = molecular target: T2, hILT4-His-Avi tag (human, UniProt Q8N423 22-459); assay: SPR Biacore T200, 37 C; antibody captured on protein A/G chip, monomeric hILT4 as analyte; kinetic fit
T2 construct: also called monomeric human ILT4; extracellular region of hILT4 linked to a His-Avi tag
T2 sequence (Q8N423 other isoform, or with tags, fused parts or gaps): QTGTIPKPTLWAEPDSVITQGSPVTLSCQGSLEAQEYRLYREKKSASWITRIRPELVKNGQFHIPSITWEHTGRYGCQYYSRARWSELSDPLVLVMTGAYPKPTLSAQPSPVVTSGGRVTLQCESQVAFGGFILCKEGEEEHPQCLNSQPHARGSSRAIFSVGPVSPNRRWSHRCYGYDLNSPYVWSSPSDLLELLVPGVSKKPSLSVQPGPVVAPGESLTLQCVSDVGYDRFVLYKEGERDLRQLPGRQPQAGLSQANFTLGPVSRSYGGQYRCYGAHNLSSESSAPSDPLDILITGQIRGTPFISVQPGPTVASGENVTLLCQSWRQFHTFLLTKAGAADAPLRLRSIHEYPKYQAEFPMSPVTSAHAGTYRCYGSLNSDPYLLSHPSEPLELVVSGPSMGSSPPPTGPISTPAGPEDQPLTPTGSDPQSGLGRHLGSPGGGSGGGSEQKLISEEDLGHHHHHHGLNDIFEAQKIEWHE
Protocol: The binding kinetics of the parent and germline reversion mutant anti-hILT4 antibodies (in the context of IgG1.3) were measured via Surface Plasmon Resonance (SPR) using a Biacore® T200 instrument. The assay temperature was 37° C. and the running buffer was PBS pH 7.4 supplemented with 0.05% Tween-20. Allanti-hILT4 antibodies were captured on a CM4 chip with pre-immobilized protein A/G (Pierce Thermo Scientific catalog number 21186). […] Monomeric human ILT4 was injected as analyte. […] The hILT4 used in this experiment, comprising the extracellular region of hILT4 linked to a His-Avi tag, consists of the following amino acid sequence: […]

hILT4-His-Avi tag [3] = molecular target: T2, hILT4-His-Avi tag; assay: SPR Biacore T200, 37 C; antibody captured by anti-human Fc on CM4 chip, hILT4-His-Avi as analyte; 1:1 Langmuir fit
Protocol: The running buffer was 10 mM HEPES pH 7.4 supplemented with 0.05% Tween-20 and 1 g/L BSA. All anti-ILT4 antibodies were captured on a CM4 chip with pre-immobilized anti-human Fc capture antibody from Southern Biotech (catalog number 2081-01). […] All data were double-referenced and fitted to a 1:1 Langmuir model with mass transport using Biacore T200 Evaluation Software version 3.1.

T1 sequence (Q8N423 other isoform, or with tags, fused parts or gaps): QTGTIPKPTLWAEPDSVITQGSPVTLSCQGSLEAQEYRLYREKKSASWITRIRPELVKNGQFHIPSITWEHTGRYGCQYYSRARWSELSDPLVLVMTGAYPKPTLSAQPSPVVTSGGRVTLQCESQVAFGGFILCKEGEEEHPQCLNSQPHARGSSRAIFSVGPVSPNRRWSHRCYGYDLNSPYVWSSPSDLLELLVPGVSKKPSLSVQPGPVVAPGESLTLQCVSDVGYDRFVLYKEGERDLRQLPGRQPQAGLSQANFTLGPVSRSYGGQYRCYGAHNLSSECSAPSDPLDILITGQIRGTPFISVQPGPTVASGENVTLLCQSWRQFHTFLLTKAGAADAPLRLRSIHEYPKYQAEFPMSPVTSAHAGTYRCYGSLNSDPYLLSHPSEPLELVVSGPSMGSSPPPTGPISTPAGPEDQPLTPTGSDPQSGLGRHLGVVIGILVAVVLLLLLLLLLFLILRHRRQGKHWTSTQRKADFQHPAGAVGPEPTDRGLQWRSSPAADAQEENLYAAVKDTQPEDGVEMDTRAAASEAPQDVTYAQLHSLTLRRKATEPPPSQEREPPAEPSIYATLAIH

B1: 2E5.A11 (antibody, V domains shown)
VH: QVQLVESGGGVVQPGRSLRLSCTASGFTFSNYGMHWVRQAPGKGLEWVAVIWYDGSNEYYAESVKGRLTISRDNSKNTLYLQVNSLRAEDTAVYYCARDPFYGSGNYFDYWGQGTLVTVSS
VL: not shown
notes: Hybridoma antibody (human IgG / human kappa), tested as hybridoma supernatant
With B1 the EC50 [1] was 0.0986 µg/mL.

B2: 9G4 (antibody, V domains shown)
VH: QVQLQESGPGLVKPSETLSLTCTVSGGSISSYYWNWIRQPPGKGLEWLGYIYYSGSTKYNPSLKSRVTISVDTSKNQFSLKLSSVTAADTAVYYCASSGWYYFDYWGQGTLVTVSS
VL: EIVLTQSPATLSLSPGERATLSCRASQSVSSYLAWYQQKPGQAPRLLIYDASNRATGIPARFSGSGSGTDFTLTISSLEPEDFAGYYCQQRSYWPWTFGQGTKVEIK
notes: Hybridoma antibody (human IgG / human kappa), tested as hybridoma supernatant; also called 9G4 (hybridoma)
With B2 the EC50 [1] was 2.84 µg/mL.

B3: 21D9.b.hIgG1.3 (antibody)
heavy: EVQLLESGGGLVQPGGSLRLSCATSGFTFSNYAMNWVRQAPGKGLEWISVISVSGGSTYYADSVKGRFTISRDNSKNTLYLQMNSLRAEDTAVYYCAKDYYYDSGSYYDSFFDYWGQGTLVTVSSASTKGPSVFPLAPSSKSTSGGTAALGCLVKDYFPEPVTVSWNSGALTSGVHTFPAVLQSSGLYSLSSVVTVPSSSLGTQTYICNVNHKPSNTKVDKRVEPKSCDKTHTCPPCPAPEAEGAPSVFLFPPKPKDTLMISRTPEVTCVVVDVSHEDPEVKFNWYVDGVEVHNAKTKPREEQYNSTYRVVSVLTVLHQDWLNGKEYKCKVSNKALPAPIEKTISKAKGQPREPQVYTLPPSREEMTKNQVSLTCLVKGFYPSDIAVEWESNGQPENNYKTTPPVLDSDGSFFLYSKLTVDKSRWQQGNVFSCSVMHEALHNHYTQKSLSLSPG
light: not shown
notes: Germline reversion mutant of 21D9 (VH G2V, D10G); light chain of 21D9; IgG1.3
B3 showed a Kd (hILT4-His-Avi tag [2]) of 0.34 nM, an app. act. (hILT4-His-Avi tag [2]) of 90% and a koff (hILT4-His-Avi tag [2]) of 0.0011 s⁻¹. The kon (hILT4-His-Avi tag [2]) was 3.1e+06 M⁻¹ s⁻¹.

B4: 21D9.c.hIgG1.3 (antibody, V domains shown)
VH: EVQLLESGGDLVQPGGSLRLSCAASGFTFSNYAMNWVRQAPGKGLEWISVISVSGGSTYYADSVKGRFTISRDNSKNTLYLQMNSLRAEDTAVYYCAKDYYYDSGSYYDSFFDYWGQGTLVTVSS
VL: not shown
notes: Germline reversion mutant of 21D9; light chain of 21D9; IgG1.3; also called 21D9.VH-G2V/T24A.IgG1.3
Work on B4 yielded a Kd (hILT4-His-Avi tag [2]) of 0.42 nM, an app. act. (hILT4-His-Avi tag [2]) of 97% and a koff (hILT4-His-Avi tag [2]) of 0.0012 s⁻¹. The kon (hILT4-His-Avi tag [2]) was 3e+06 M⁻¹ s⁻¹.

B5: 21D9.d.hIgG1.3 (antibody, V domains shown)
VH: EVQLLESGGDLVQPGGSLRLSCATSGFTFSNYAMNWVRQAPGKGLEWVSVISVSGGSTYYADSVKGRFTISRDNSKNTLYLQMNSLRAEDTAVYYCAKDYYYDSGSYYDSFFDYWGQGTLVTVSS
VL: not shown
notes: Germline reversion mutant of 21D9; light chain of 21D9; IgG1.3; also called 21D9.VH-G2V/I48V
In the case of B5, the Kd (hILT4-His-Avi tag [2]) is reported as 0.35 nM, the app. act. (hILT4-His-Avi tag [2]) is reported as 84% and the koff (hILT4-His-Avi tag [2]) is reported as 0.0011 s⁻¹. For the same binder, the kon (hILT4-His-Avi tag [2]) was 3.1e+06 M⁻¹ s⁻¹.

B6: 10F10.4 (antibody, human IgG1, kappa, V domains shown)
VH: QVQLVESGGGVVQPGRSLRLSCAASGFTFSSYAMHWVRQAPGKGLEWVAIISYDEYNKYYADSVKGRFTISRDNSKNTLYLQMNSLRAEDTAVYYCAREWVGIRYWGQGTLVTVSS
VL: AIQLTQSPSSLSASVGDRVTITCRASQGISSALAWFQQKPGKAPKLLIYDASSLESGVPSRFSGSGSGTDFTLTISSLQPEDFATYYCQQFNSYPITFGQGTRLEIKR
notes: 10F10 with only the light chain reversion T63S
B6 gave a Kd (hILT4-His-Avi tag [3]) of 22 nM, an app. act. (hILT4-His-Avi tag [3]) of 117% and a koff (hILT4-His-Avi tag [3]) of 0.027 s⁻¹. The kon (hILT4-His-Avi tag [3]) was 1.2e+06 M⁻¹ s⁻¹.

B7: 9C8.A6 (antibody, V domains shown)
VH: QVQLVQSGAEVKKPGASVKVSCKASGYTFTSSDINWVRQATGQGLEWMGWMNPNSGHTGYAQKFQDRVTLTRDTSISTAYMELSSLRSEDSAVYYCARGGNSIDWGFSYYGLDVWGQGTTVTVSS
VL: AIQLTQSPSSLSASVGDRVTITCRASQGISSALAWYQQKPGKAPKLLIYDASSLESGVPSRFSGSGSGTDFTLTISSLQPEDFATYYCQQFNSYPFTFGPGTKVDIK
notes: Hybridoma antibody (human IgG / human kappa from transgenic mice), tested as hybridoma supernatant
B7 showed an EC50 [1] of 0.189 µg/mL.

B8: 21D9.H11 (antibody, V domains shown)
VH: EGQLLESGGDLVQPGGSLRLSCATSGFTFSNYAMNWVRQAPGKGLEWISVISVSGGSTYYADSVKGRFTISRDNSKNTLYLQMNSLRAEDTAVYYCAKDYYYDSGSYYDSFFDYWGQGTLVTVSS
VL: not shown
notes: Hybridoma antibody (human IgG / human kappa), tested as hybridoma supernatant; also called 21D9 (hybridoma)
B8 gave an EC50 [1] of 0.0174 µg/mL.

B9: 24E5.A7 (antibody, V domains shown)
VH: EVQLLESGGGLVQPGGSLRLSCAASGFTFSSYVMSWVRQAPGKGLEWVSGISGSGGSTYYADSVKGRFTISRDNSKNTLYLQMNSLRAEDTAVYYCAKDQDIIAAYYFVYWGQGTLVTVSS
VL: DIQMTQSPSSLSASVGDRVTITCRASQGISSWLAWYQQKPEKAPKSLIYAASSLQSGVPSRFSGSGSGTDFTLTISSLQPEDFATYYCQQYNSYPLTFGGGTKVEIK
notes: as for B1
In the case of B9, the EC50 [1] is reported as 0.268 µg/mL.
